Results reported in patent US20190248900A1 (Y BIOLOGICS, published 2019).

Legend:
Assay in all cases: scFv-phage ELISA
[1] = molecular target: T1, M5
T1 construct: also called PD1 mutant M5

[2] = molecular target: T2, M12
T2 construct: also called PD1 mutant M12

[3] = molecular target: T3, M14
T3 construct: also called PD1 mutant M14

[4] = molecular target: T4, M1-1
T4 construct: also called PD1 mutant M1-1

[5] = molecular target: T5, M3
T5 construct: also called PD1 mutant M3

[6] = molecular target: T6, M2-2
T6 construct: also called PD1 mutant M2-2

[7] = molecular target: T7, M5-2
T7 construct: also called PD1 mutant M5-2

[8] = molecular target: T8, M7
T8 construct: also called PD1 mutant M7

[9] = molecular target: T9, ITGA6-Fc
T9 construct: Fc fusion
T9 sequence (P23229 whole entry, species assumed, looked up): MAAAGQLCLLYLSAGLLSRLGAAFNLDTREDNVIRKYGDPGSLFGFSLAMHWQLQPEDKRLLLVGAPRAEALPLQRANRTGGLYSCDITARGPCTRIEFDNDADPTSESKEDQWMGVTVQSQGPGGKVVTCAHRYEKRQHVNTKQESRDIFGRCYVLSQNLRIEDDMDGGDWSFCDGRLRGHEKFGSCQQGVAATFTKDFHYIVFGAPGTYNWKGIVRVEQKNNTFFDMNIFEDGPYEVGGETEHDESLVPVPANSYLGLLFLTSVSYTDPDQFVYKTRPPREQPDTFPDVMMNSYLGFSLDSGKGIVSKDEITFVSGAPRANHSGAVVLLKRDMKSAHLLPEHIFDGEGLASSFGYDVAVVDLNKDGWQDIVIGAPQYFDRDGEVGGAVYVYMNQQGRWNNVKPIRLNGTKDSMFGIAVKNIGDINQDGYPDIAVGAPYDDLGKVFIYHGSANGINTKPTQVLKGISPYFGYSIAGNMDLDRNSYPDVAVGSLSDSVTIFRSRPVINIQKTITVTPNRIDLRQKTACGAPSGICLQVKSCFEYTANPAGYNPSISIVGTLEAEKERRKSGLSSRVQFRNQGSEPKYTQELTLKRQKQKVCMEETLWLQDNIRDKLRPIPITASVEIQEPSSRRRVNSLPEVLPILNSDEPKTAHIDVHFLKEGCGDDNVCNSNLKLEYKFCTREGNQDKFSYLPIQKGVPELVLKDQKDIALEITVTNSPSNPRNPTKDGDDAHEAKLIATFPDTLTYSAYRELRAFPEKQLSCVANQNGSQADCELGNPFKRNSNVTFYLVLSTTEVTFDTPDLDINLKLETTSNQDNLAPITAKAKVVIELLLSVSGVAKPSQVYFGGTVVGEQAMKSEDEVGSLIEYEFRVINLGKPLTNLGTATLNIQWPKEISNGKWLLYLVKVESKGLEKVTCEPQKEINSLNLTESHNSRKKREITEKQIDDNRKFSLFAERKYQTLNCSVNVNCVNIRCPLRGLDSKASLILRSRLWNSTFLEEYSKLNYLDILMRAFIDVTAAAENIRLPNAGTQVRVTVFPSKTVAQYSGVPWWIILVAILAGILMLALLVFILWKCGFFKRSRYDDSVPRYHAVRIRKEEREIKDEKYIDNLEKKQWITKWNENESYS

[10] = molecular target: T10, M1
T10 construct: also called PD1 mutant M1

[11] = molecular target: T11, M2-1
T11 construct: also called PD1 mutant M2-1

[12] = molecular target: T12, M4
T12 construct: also called PD1 mutant M4

[13] = molecular target: T13, M6
T13 construct: also called PD1 mutant M6

[14] = molecular target: T14, M7-1
T14 construct: also called PD1 mutant M7-1

[15] = molecular target: T15, M7-2
T15 construct: also called PD1 mutant M7-2

[16] = molecular target: T16, M2
T16 construct: also called PD1 mutant M2

[17] = molecular target: T17, M8
T17 construct: also called PD1 mutant M8

[18] = molecular target: T18, M9
T18 construct: also called PD1 mutant M9

[19] = molecular target: T19, antigen PD1 (coated, construct not stated) (UniProt Q15116 25-170, limits assumed)
T19 construct: also called PD1 antigen; PDCD1

[20] = molecular target: T20, M13
T20 construct: also called PD1 mutant M13

[21] = molecular target: T21, M1-2
T21 construct: also called PD1 mutant M1-2

[22] = molecular target: T22, M10
T22 construct: also called PD1 mutant M10

[23] = molecular target: T23, M5-1
T23 construct: also called PD1 mutant M5-1

[24] = molecular target: T24, M11
T24 construct: also called PD1 mutant M11

T19 sequence (Q15116 25-170 limits assumed): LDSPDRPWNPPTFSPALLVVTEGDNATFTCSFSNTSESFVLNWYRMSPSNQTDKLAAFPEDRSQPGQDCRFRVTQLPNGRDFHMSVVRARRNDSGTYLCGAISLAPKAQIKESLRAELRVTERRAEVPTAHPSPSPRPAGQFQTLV

B1: PD1-29H3 (antibody, V domains shown)
VH: QMQLVESGGNLVQPGRSLRLSCAASGFTFDDYGMHWVRQAPGKGLEWVSSISWNSGTIGYADSVKGRFTISRDNAKNSLYLQMNSLRSEDTAVYYCARLLHQMNEHEFMDVWGQGTTVTVSS
VL: QLVLTQPSSMSEAPGQRVTISCSGGTSNIGTNAVNWYQQPPGKAPTLLIYYDDRLTSGVSDRFSGSKSGTSASLAISRLQSEDEADYYCAAWDDSLNGWVFGGGTKLTVL
notes: scFv-phage in the screening ELISA; later whole IgG
B1 showed an OD490 [1] of 2, an OD490 [2] of 3 and an OD490 [3] of 3.5. For the same binder, the OD490 [4] was 3.2, the OD490 [5] was 2.3 and the OD490 [6] was 3.2. It also gave an OD490 [7] of 3.7, an OD490 [8] of 1.4 and an OD490 [9] of 0.3. The OD490 [10] was 1.5, the OD490 [11] was 2.8 and the OD490 [12] was 3.3. For the same binder, the OD490 [13] was 3.5, the OD490 [14] was 1.5 and the OD490 [15] was 3.1. For the same binder, the OD490 [16] was 0.7, the OD490 [17] was 2.2 and the OD490 [18] was 3.4. For the same binder, the OD490 [19] was 3.6, the OD490 [20] was 3.5 and the OD490 [21] was 0.6. For the same binder, the OD490 [22] was 3, the OD490 [23] was 2 and the OD490 [24] was 1.

B2: PD1-31F3 (antibody, V domains shown)
VH: QVQLVQSGAEVKKPGSSVKVSCKASGGTFSSYAISWVRQAPGQGLEWMGGIIPLFSTAHSAQKFQGRVTITADESSSTAYMELSSLRSEDTAVYYCAKHKGLPFDWSPDGFDTWGQGTMVTVSS
VL: QFVLTQPPSVSGAPGQRVIISCTGSSSNIGAGYDVHWYQQLPGTAPKVLIYGNSDRPSGVPDRFSASKSATSASLAITGLQAEDEADYYCQSYDSSLSGYVFGTGTKVTVL
notes: as for B1
For B2, the OD490 [1] was 1.1, the OD490 [2] was 2.6 and the OD490 [3] was 3.4. The OD490 [4] was 3, the OD490 [5] was 1.9 and the OD490 [6] was 3.3. The OD490 [7] was 3.4, the OD490 [8] was 0.7 and the OD490 [9] was 0.4. For the same binder, the OD490 [10] was 3, the OD490 [11] was 3.5 and the OD490 [12] was 2.7. For the same binder, the OD490 [13] was 3.3, the OD490 [14] was 0.8 and the OD490 [15] was 1.5. For the same binder, the OD490 [16] was 0.7, the OD490 [17] was 1.7 and the OD490 [18] was 3.2. The OD490 [19] was 2, the OD490 [20] was 3.3 and the OD490 [21] was 3.2. It also gave an OD490 [22] of 3, an OD490 [23] of 1.3 and an OD490 [24] of 0.8.

B3: PD1-51D9 (antibody, V domains shown)
VH: QVQLVESGAEVKKPGASVKLSCKASGYTFSSYWMHWVRQAPGQRLEWMGEINPGNGHTNYNEKFKSRVTITVDKSASTAYMELSSLRSEDTAVYYCAREGDGSYWGYFDSWGQGTPITVSS
VL: DIVMTQTPLSLPVTPGEPASISCRSSQSLLHSNGNNYLDWYLQKPGQSPQLLIYLGSYRASGVPDRFSGSGSGTDFTLKISRVEAEDVGLYYCMQGLQIPSTFGPGTKVDIK
notes: scFv-phage in the screening ELISA; whole IgG in the other assays
In the case of B3, the OD490 [1] is reported as 0.1, the OD490 [2] is reported as 0.3 and the OD490 [3] is reported as 0.8. The OD490 [4] was 0.2, the OD490 [5] was 0.3 and the OD490 [6] was 0.6. It also gave an OD490 [7] of 0.6, an OD490 [8] of 0.1 and an OD490 [9] of 0.1. For the same binder, the OD490 [10] was 0.2, the OD490 [11] was 0.4 and the OD490 [12] was 1.1. The OD490 [13] was 0.3, the OD490 [14] was 0.1 and the OD490 [15] was 0.3. It also gave an OD490 [16] of 0.1, an OD490 [17] of 0.1 and an OD490 [18] of 0.3. The OD490 [20] was 0.7, the OD490 [21] was 0.4 and the OD490 [22] was 0.1. It also gave an OD490 [23] of 0.1 and an OD490 [24] of 0.1.
